Test results taken from patent US20170342107A1.

Key:
[1] = target: mouse melanocortin-4 receptor (mouse) (UniProt P56450); experiment: cell-based or functional assay
[2] = target: mouse melanocortin-3 receptor (mouse) (UniProt P33033); experiment: cell-based or functional assay
[3] = target: mouse melanocortin-4 receptor (mouse) (UniProt P56450); experiment: 125I-NDP-MSH competitive displacement, HEK293 cells stably expressing mMC4R; negative = more potent than control
[4] = target: mouse melanocortin-3 receptor (mouse) (UniProt P33033); experiment: 125I-NDP-MSH competitive displacement, HEK293 cells stably expressing mMC3R; negative = more potent than control
[5] = target: mouse melanocortin-4 receptor (mouse) (UniProt P56450); experiment: 125I-NDP-MSH competitive displacement, HEK293 cells stably expressing mMC4R
[6] = target: mouse melanocortin-3 receptor (mouse) (UniProt P33033); experiment: 125I-NDP-MSH competitive displacement, HEK293 cells stably expressing mMC3R
[7] = target: mouse melanocortin-4 receptor (mouse) (UniProt P56450); experiment: 125I-NDP-MSH competitive displacement, HEK293 cells stably expressing mMC4R; here negative = weaker binder than SKY4-48-1

Chain of mouse melanocortin-3 receptor (mouse) (P33033 whole entry): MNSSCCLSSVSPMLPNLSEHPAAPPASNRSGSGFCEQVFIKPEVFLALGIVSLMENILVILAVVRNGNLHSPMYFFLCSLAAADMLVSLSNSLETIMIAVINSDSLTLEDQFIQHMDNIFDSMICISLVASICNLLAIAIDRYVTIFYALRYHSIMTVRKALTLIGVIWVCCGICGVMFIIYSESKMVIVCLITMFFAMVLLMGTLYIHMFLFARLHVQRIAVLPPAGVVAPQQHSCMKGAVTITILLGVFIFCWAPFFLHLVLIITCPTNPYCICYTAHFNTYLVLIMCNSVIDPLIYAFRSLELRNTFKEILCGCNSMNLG
Chain of mouse melanocortin-4 receptor (mouse) (P56450 whole entry): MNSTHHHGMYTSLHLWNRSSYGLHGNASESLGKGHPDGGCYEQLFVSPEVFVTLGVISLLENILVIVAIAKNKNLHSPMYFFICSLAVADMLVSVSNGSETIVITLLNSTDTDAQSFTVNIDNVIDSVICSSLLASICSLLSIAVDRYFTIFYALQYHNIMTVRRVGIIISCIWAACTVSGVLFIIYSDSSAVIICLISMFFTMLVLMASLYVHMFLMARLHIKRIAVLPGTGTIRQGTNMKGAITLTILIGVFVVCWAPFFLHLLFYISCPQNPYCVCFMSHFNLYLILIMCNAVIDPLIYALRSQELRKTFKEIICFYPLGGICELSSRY

Agonist Activity EC50 [1]	Antagonist Activity K [1]	Antagonist Ki [1]	Agonist Activity EC50 [2]	Fold Diff. (IC50 against SKY4-48-1) [3]	Fold Diff. (IC50 against SKY4-48-1) [4]	IC50 [5]	IC50 [6]	Agonist Activity, % stimulation relative to maximum [1]	Agonist, % of NDP-MSH maximal response [1]	pA2 (antagonist) [1]	Antagonist Activity K [2]	pA2 (antagonist) [2]	Fold Diff. (IC50 against SKY4-48-1) [6]	Fold Diff. (IC50 against SKY4-48-1) [7]	fold increase in agonist potency against SKY5-146-7 [2]	Substance
> 100000 nM	16 nM	15 nM	16 nM	-9 fold	-92 fold	13 nM	550 nM									SKY4-48-18, Ac-Arg-Arg-(pI)DPhe-Tic-NH2 (peptide)
				1 fold	-20 fold	135 nM	2500 nM									SKY4-48-23, Ac-Phe-Arg-(pI)DPhe-Tic-NH2 (peptide)
> 100000 nM	400 nM		57 nM	2 fold	-115 fold	220 nM	440 nM									SKY4-48-42, Ac-Arg-Arg-(pI)DPhe-DNal(2')-NH2 (peptide)
		> 3100 nM	> 100000 nM			6700 nM	800 nM	42 % @ 100 µM	42 % @ 100 µM	5.5 pA2	63 nM	7.2 pA2	64 fold	-55 fold		SKY5-122-1, Ac-DTic-(pI)Phe-DArg-DHis-NH2 (peptide)
> 100000 nM	100 nM		40 nM	1 fold	-52 fold	83 nM	975 nM			7 pA2					12 fold	SKY6-24-2, Ac-His-Arg-(pI)DPhe-Tic-NH2 (peptide)
				-3 fold	-120 fold	43 nM	420 nM		32 % @ 100 µM							SKY6-24-3, Ac-DNal(2')-Arg-(pI)DPhe-Tic-NH2 (peptide)
